Assay results: the supplement of paper PMC7877785
± gives the uncertainty stated by the source.

Experiment: self-splicing fitness, log relative to wild type (ln ratio); higher = more splicing; Tetrahymena group I intron in knt gene, E. coli kanamycin selection, DiMSum; sequences stand for … in CUCUCU…GGAGGGAAAAGUUAUCAGGCAUGCACCUGGUAGCUAGUCUUUAAACCAAUAGAUUGCAUCGGUUUAAAAGGCAAGACCGUCAAAUUGCGGGAAAGGGGUCAACAGCCGUUCAGUACCAAGUCUCAGGGGAAACUUUGAGAUGGCCUUGCAAAGGGUAUGGUAAUAAGCUGACGGACAUGGUCCUAACCACGCAGCCAAGUCCUAAGUCAACAGAUCUUCUGUUGAUAUGGAUGCAGUUCACAGACUAAAUGUCGGUCGGGGAAGAUGUAUUCUUCUCAUAAGAUAUAGUCGGACCUCUCCUUAAUGGGAGCUAGCGGAUGAAGUGAUGCAACACUGGAGCCGCUGGGAACUAAUUUGUAUGCGAAAGUAUAUUGAUUAGUUUUGGAGUACUCGUGGUCG
Outline: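 Library with all eight P1ex-region intron nucleotides randomised, intron inside the knt kanamycin-resistance gene on pET-22b(+), in E. coli BL21(DE3). Cells grew overnight at 37°C or 30°C on LB agar with or without 25 μg/mL kanamycin (plus 100 μg/mL carbenicillin, 50 μM IPTG, 0.2% rhamnose), in six replicate transformations. Pooled colonies were amplicon-sequenced on Illumina HiSeq 2500. DiMSum fitness is the error-weighted combination of wild-type-normalised replicate fold changes, kanamycin versus none.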

Sequence	self-splicing fitness (ln) (30 °C)	self-splicing fitness (ln) (37 °C)
GCACAGCAAUAUUACGGCCG	-2.48 ± 0.17	-1.75 ± 0.18
UCACAGCAAUAUUACGCGUA	-1.09 ± 0.086	-0.297 ± 0.082
CUUUAGCAAUAUUACGAGUG	-0.24 ± 0.06	-0.267 ± 0.077
CAGUAGCAAUAUUACGCUCU	-2.44 ± 0.18	-0.957 ± 0.15
GGAUAGCAAUAUUACGUGGG	–	-0.24 ± 0.16
UCAAAGCAAUAUUACGUAUU	-3.03 ± 0.14	-2.13 ± 0.17
CUCGAGCAAUAUUACGGAGA	-2.57 ± 0.36	-1.72 ± 0.28
CCAUAGCAAUAUUACGAGAG	-3.57 ± 0.16	-2.56 ± 0.14
UAUGAGCAAUAUUACGAACU	–	-1.57 ± 0.26
UGAGAGCAAUAUUACGGAUA	–	-2.5 ± 0.26
CCAUAGCAAUAUUACGGACA	-3.36 ± 0.23	-1.14 ± 0.16
AUUUAGCAAUAUUACGAGAC	-2.44 ± 0.39	–
UGGGAGCAAUAUUACGAGGC	-2.02 ± 0.35	–
UUUCAGCAAUAUUACGGGAA	-1.96 ± 0.2	-1.93 ± 0.21
CUGCAGCAAUAUUACGUCAU	-2.86 ± 0.14	-2.06 ± 0.13
UUAUAGCAAUAUUACGCAAC	-1.99 ± 0.34	-1.6 ± 0.2
CCCUAGCAAUAUUACGUACG	-2.86 ± 0.18	-2.81 ± 0.27
CGAAAGCAAUAUUACGUCUA	-0.692 ± 0.25	-0.962 ± 0.17
AAUUAGCAAUAUUACGUGGG	-3.58 ± 0.24	-3.64 ± 0.3
UAGCAGCAAUAUUACGACCG	-0.887 ± 0.13	-0.0437 ± 0.22
CAGUAGCAAUAUUACGGGUA	-3.45 ± 0.4	-1.01 ± 0.18
UUUAAGCAAUAUUACGUUUU	-3.93 ± 0.2	-1.22 ± 0.16
GCGCAGCAAUAUUACGCAAA	-1.8 ± 0.087	-0.777 ± 0.078
CUGCAGCAAUAUUACGAUAC	-2.99 ± 0.34	–
GGAUAGCAAUAUUACGUGGA	-3.31 ± 0.21	-2.47 ± 0.21
CGUAAGCAAUAUUACGCGCG	-2.79 ± 0.16	-1.71 ± 0.23

Sequence	self-splicing fitness (ln) (30 °C)	self-splicing fitness (ln) (37 °C)
GAAUAGCAAUAUUACGUUCA	-1.04 ± 0.38	-0.336 ± 0.3
CCUCAGCAAUAUUACGGUAG	-0.514 ± 0.05	-0.195 ± 0.067
AUGGAGCAAUAUUACGGUCA	-2.19 ± 0.24	-0.926 ± 0.2
CGAAAGCAAUAUUACGUAUC	-3.76 ± 0.2	-3.21 ± 0.23
UGCAAGCAAUAUUACGUGUA	-1.96 ± 0.073	-1.35 ± 0.084
ACGCAGCAAUAUUACGGUGA	-1.39 ± 0.05	0.18 ± 0.063
AAUCAGCAAUAUUACGGGAC	-3.57 ± 0.18	-1.4 ± 0.096
AGAAAGCAAUAUUACGGCUU	-1.26 ± 0.072	-0.7 ± 0.089
ACAAAGCAAUAUUACGGCUU	-0.982 ± 0.084	-0.814 ± 0.12
AUAUAGCAAUAUUACGGCCC	-0.72 ± 0.15	-0.205 ± 0.24
AACUAGCAAUAUUACGAGCA	-1.68 ± 0.12	-0.209 ± 0.11
UAAUAGCAAUAUUACGGCGA	-1.6 ± 0.21	-0.266 ± 0.22
UUACAGCAAUAUUACGUAAU	-3.27 ± 0.26	-2.32 ± 0.19
GUAAAGCAAUAUUACGUGUU	-2.69 ± 0.098	-0.867 ± 0.11
AGCCAGCAAUAUUACGAUCU	-0.174 ± 0.11	0.256 ± 0.1
AUUUAGCAAUAUUACGUUUC	-2.86 ± 0.27	-1.91 ± 0.34
UGAGAGCAAUAUUACGGUGC	-2.02 ± 0.21	–
AUCUAGCAAUAUUACGUUAC	-1.99 ± 0.27	-1.74 ± 0.34
ACUAAGCAAUAUUACGUUAU	-3.49 ± 0.13	-1.55 ± 0.11
CGUCAGCAAUAUUACGAUCG	-1.74 ± 0.093	-1.61 ± 0.11
CAGAAGCAAUAUUACGAGGA	-4.09 ± 0.4	-2.01 ± 0.2
UGACAGCAAUAUUACGAGUC	-3.94 ± 0.23	-3.33 ± 0.32
GGGCAGCAAUAUUACGGGCU	-3.06 ± 0.14	-2.04 ± 0.18
GCGCAGCAAUAUUACGAGCA	-3.48 ± 0.21	-1.11 ± 0.14
AAUGAGCAAUAUUACGUUGU	-3.73 ± 0.14	-2.89 ± 0.16
ACCCAGCAAUAUUACGGUGG	-3.57 ± 0.15	-2.76 ± 0.18

Sequence	self-splicing fitness (ln) (30 °C)	self-splicing fitness (ln) (37 °C)
CAUAAGCAAUAUUACGGGGC	-3.25 ± 0.26	-1.22 ± 0.16
GACCAGCAAUAUUACGCAGC	-0.913 ± 0.11	-0.292 ± 0.13
GUGUAGCAAUAUUACGAUUU	-1.98 ± 0.19	0.0419 ± 0.25
GUGGAGCAAUAUUACGGCAC	-1.39 ± 0.19	-0.386 ± 0.31
GACCAGCAAUAUUACGGGAC	-2.5 ± 0.092	-1.03 ± 0.092
GCGUAGCAAUAUUACGAGGG	-3.37 ± 0.16	-1.96 ± 0.17
AUCCAGCAAUAUUACGAAGC	-2.53 ± 0.16	-2.28 ± 0.23
AAUCAGCAAUAUUACGGAAG	-1.75 ± 0.11	-0.948 ± 0.12
UCCCAGCAAUAUUACGGCGC	-1.67 ± 0.091	-0.401 ± 0.14
AAUAAGCAAUAUUACGACUC	0.0667 ± 0.14	0.341 ± 0.2
GAGCAGCAAUAUUACGCAAC	-2.85 ± 0.28	-2.22 ± 0.45
AUCUAGCAAUAUUACGACCU	-0.471 ± 0.11	0.729 ± 0.12
GAUUAGCAAUAUUACGCGUG	-1.23 ± 0.091	0.595 ± 0.11
GGUAAGCAAUAUUACGUUUU	-2.02 ± 0.12	-0.929 ± 0.14
GGGCAGCAAUAUUACGACGA	-0.804 ± 0.11	-0.442 ± 0.12
UUUGAGCAAUAUUACGGUCC	-3.88 ± 0.28	-1.8 ± 0.23
UUUCAGCAAUAUUACGCAGU	-4.25 ± 0.31	-1.59 ± 0.17
AAUGAGCAAUAUUACGUACU	-0.657 ± 0.12	-0.978 ± 0.16
GAAAAGCAAUAUUACGCGAU	-2.88 ± 0.28	-2.32 ± 0.33
CUGGAGCAAUAUUACGGACA	-3.7 ± 0.43	-2.45 ± 0.46
GACUAGCAAUAUUACGAACU	0.186 ± 0.15	1.04 ± 0.22
CACGAGCAAUAUUACGAUCC	–	-1.9 ± 0.47
AAACAGCAAUAUUACGAGUG	-2.71 ± 0.075	-1.8 ± 0.074
UUUUAGCAAUAUUACGUUGG	-2.07 ± 0.21	-2.23 ± 0.32
CAACAGCAAUAUUACGUUAC	-3.99 ± 0.21	-2.44 ± 0.14
